From patent US20200040057A1 (IMMATICS BIOTECHNOLOGIES, published 2020)

Target: HLA-B*07 (human)
Assay: UV peptide exchange ELISA; ++++ = yield >75%

peptide exchange yield [%] | Binder
> 75 | AVRLPTPNL
> 75 | VPYAAQAAL
> 75 | QPTWNTQTRL
> 75 | VPSHWMVAL
> 75 | SPAAPLSPASSL
> 75 | QPSLVQAIF
> 75 | RPRYETGVCA
> 75 | SPIIHSILL
> 75 | LPRLPVGSLV
> 75 | SPIPRPLFL
> 75 | SPSTSRTPLLSSL
> 75 | FPYDKPLIM
> 75 | LPRAFLQSL
> 75 | MPVSAFTVI
> 75 | LPLNSSTSL
> 75 | MPVDSFNSM
> 75 | KPRTPFTTAQLL
> 75 | NVNPARKGL
> 75 | LPALKEEAF
> 75 | RPRSLQCVSL
> 75 | YPSSPASAV
> 75 | GPVPSPLAL
> 75 | APEGKRLGF
> 75 | FPCSALLACF
> 75 | RPTHPLRSF

peptide exchange yield [%] | Binder
> 75 | SPVPSHWMVAL
> 75 | LPRAGGAFLM
> 75 | QPVHSLCSA
> 75 | KPHLDRRGAVI
> 75 | APARPAAAF
> 75 | RPQPGWRESL
> 75 | KPYEGRVEI
> 75 | LPIARVLTV
> 75 | RPYQDAPVA
> 75 | RPVWDVRSA
> 75 | HPRWIEPTVM
> 75 | FPAPPAHWF
> 75 | RPDSRLLEL
> 75 | RPVLTASSF
> 75 | SPTRGSEF
> 75 | LPSLSHCSQL
> 75 | SPSGQRDVSL
> 75 | KPKAVKPKAA
> 75 | SPLLMQRTL
> 75 | SPMEAELVRRIL
> 75 | RAAGRRLQL
> 75 | TPFPDIHWF
> 75 | RVIQGTTTL
> 75 | SPFSGGPVSF
> 75 | RPVTGSVC

peptide exchange yield [%] | Binder
> 75 | APPPPPPPF
> 75 | RPILKEQSSSSF
> 75 | DVIDDIISL
> 75 | MPVDSFNSML
> 75 | RPSKEMQVTI
> 75 | KPGFNISIL
> 75 | RLRDYISSL
> 75 | MPYVVLTAL
> 75 | RPPPPCIAL
> 75 | NPRSPPATM
> 75 | RPFSVSSISQL
> 75 | RPSAPRGPP
> 75 | QPQCSTHIL
> 75 | LPNTGRIGQLL
> 75 | QPLDICHSF
> 75 | SPITLQAL
> 75 | APLPRPGAV
> 75 | VPMPGVQAV
> 75 | IPHQRSSL
> 75 | QPDHAGIFRVF
> 75 | LVQSSRSEV
> 75 | VPKPAIPSSSVL
> 75 | LPRAGGAF
> 75 | RPDVVRTLL
> 75 | IPVTSSVTL
